Test results reported in publication PMC4092016, “Molecular Characterization of the Na^+/H^+-Antiporter NhaA from Salmonella Typhimurium” (PLoS ONE, 2014).

Molecular target: the molecule itself
Assay: SEC-MALS; SEC-MALLS with refractive index and UV280 monitoring; two coupled Superdex 200 5/15 columns; 10 mM MES pH 6, 150 mM NaCl, 0.03% β-DDM; 80 µg IMAC-purified STNhaA; protein conjugate analysis separating protein and detergent mass

B1: Na+/H+ antiporter NhaA from Salmonella enterica serovar Typhimurium LT2, recombinant with carboxy-terminal hexahistidine tag (natural protein)
chain: NLGILKHLHRFFSSDASGGIILIIAAALAMLMANMGATSGWYHDFLETPVQLRVGALEINKNMLLWINDALMAVFFLLIGLEVKRELMQGSLASLRQAAFPVIAAIGGMIVPALLYLAFNYSDPVTREGWAIPAATDIAFALGVLALLGSRVPLALKIFLMALAIIDDLGAIVIIALFYTSDLSIVSLGVAAFAIAVLALLNLCGVRRTGVYILVGAVLWTAVLKSGVHATLAGVIVGFFIPLKEKHGRSPAKRLEHVLHPWVAYLILPLFAFANAGVSLQGVTIDGLTSMLPLGIIAGLLIGKPLGISLFCWLALRFKLAHLPQGTTYQQIMAVGILCGIGFTMSIFIASLAFGNVDPELINWAKLGILIGSLLSAVVGYSWLRARLNAPA
notes: five residues that the expression construct adds at the amino-terminus; Na+/H+ antiporter NhaA, S. Typhimurium LT2, wild type; coding region (nhaA, STM0039) amplified from genomic DNA; calculated mass of the construct 44.01 kDa; Integral membrane protein, held in β-DDM detergent; also called STNhaA; STNhaA-His6; source: E. coli NM554 (pTTQ18A1-STNhaA-His6), membranes solubilized in β-DDM, …
  stoichiometry N: 2
